From paper PMC5356828

Columns and labels:
[1] = target: multidrug resistance-associated protein 1 (human (endogenous in primary skin fibroblasts)) (UniProt P33527); assay: co-IP; lysates of hypertrophic scar fibroblasts (HF) treated with latrunculin-A (0.2 μM) or DMSO for 12 h; IP with anti-P-glycoprotein or anti-MRP1 antibody, immunoblot for actin
[2] = target: P-glycoprotein (human (endogenous in primary skin fibroblasts)) (UniProt P08183); assay: as above

Q: For “actin (from UniProt P60709 1-375) (natural protein)”, which percent loss of the co-precipitate after latrunculin-A [1] is on record?
A: 70%

Q: What about the percent loss of the co-precipitate after latrunculin-A [2] of the same substance?
A: 90%
